Measured values reported in publication PMC3088361 (Biochemistry, 2011).

Target: HIV-1 YU-2 gp120 wild type (HIV-1 (isolate YU-2), UniProt P35961 32-498)
Assay: SPR

CNLHWCQLRCKSLGLLGKCAGSFCACV (designed binder, C-terminal amide (-NH2); oxidized peptide) [[F5W]CD4F23]: binds.
